Assay results as given in US20260015434A1, “ANTIBODY MATERIALS AND METHODS TARGETING MICROBIAL POLYSACCHARIDES” (priority 2022, published 2026).
Positions count from the first letter of the chain named. In names and notes the source's numbering stands.

Tests used:
TG10 binding to PNAG 0 = experiment: Monosaccharide inhibition of antibody binding on the array
Protocol: (§1) This example describes how TG10 binding is inhibited by glucosamine. For small molecule inhibition assays, arrays were blocked and washed as previously described. Antibodies F598 and TG10 were diluted to 5 μg/mL in binding buffer. 20 mM N-Acetyl glucosamine and 20 mM glucosamine in binding buffer was prepared and an equal volume of the monosaccharide solutions were added to the diluted antibodies. Antibody/monosaccharide samples were incubated at room temperature for 30 min with rotation prior to being applied to the array. For the TG10 glucosamine IC50 inhibition assay, TG10 was diluted to 30 nM in binding buffer. A pH adjusted 1M stock of Glucosamine.HCl in PBS with 3% BSA (pH 7.2) was prepared and a serial dilution in binding buffer was made. Equal volumes of TG10 and each of the serial diluted glucosamine stocks was combined. Antibody/monosaccharide samples were incubated at RT for 30 min with rotation prior to being applied to the array.
(§2) Monosaccharide inhibition of both TG10 and F598 was studied on the array. The antibodies were incubated with 10 mM glucosamine, galactosamine, N-acetyl glucosamine, and N-acetyl galactosamine and then applied to the array. The binding of TG10 with PNAG 0 and of F598 with PNAG 31 were analyzed with and without monosaccharide inhibitors (FIGS. 5A-5D). Glucosamine had the greatest effect on TG10 binding to PNAG 0, reducing signal intensity by 94% at 10 mM […] (100% at 100 mM […]). As expected, N-acetyl glucosamine inhibited F598 binding with PNAG 31, reducing RFU by 74% at 10 mM GlcNAc and 99% at 100 mM GlcNAc. […] To further illuminate the small molecule inhibition properties of glucosamine on TG10, IC50 values for glucosamine was determined by titrating GlcNH2 with TG10.

[1] = tested on: F598 binding with PNAG 31; experiment: as above
Protocol: as §1, §2

[2] = target: TG10 binding to PNAG 0, PNAG 1, and PNAG 16; experiment: TG10 glucosamine IC50 inhibition assay on the array; settings: three best binding conjugates on the array (PNAG 0, PNAG 1, PNAG 16); TG10 diluted to 30 nM
Protocol: as §1
Monosaccharide inhibition of both TG10 and F598 was studied on the array. […] The binding of TG10 with PNAG 0 and of F598 with PNAG 31 were analyzed with and without monosaccharide inhibitors (FIGS. 5A-5D). […] To further illuminate the small molecule inhibition properties of glucosamine on TG10, IC50 values for glucosamine was determined by titrating GlcNH2 with TG10.

[3] = target: PNAG 0 (fully deacetylated glucosamine pentasaccharide conjugate); experiment: Glycan microarray binding / apparent KD
Protocol: (§3) Neoglycoprotein (NGP) microarray fabrication was performed as follows. Several NGP microarrays were constructed as previously described. Two large arrays (8 duplicate arrays per slide) composed of 815 and 870 neoglycoproteins, glycoproteins, glycopeptide conjugates, and controls were constructed and used for the experiments in this report. Additionally, a PNAG-focused array (16 duplicates per slide) with 49 array components was fabricated and used to determine apparent KD values. Array component parent stocks were diluted to 125-200 μg/mL into print buffer (1×PBS buffer with 2.5% (v/v) glycerol, 0.0005% (v/v) Triton-X 100, 0.0005 μg/mL soluble print dye 0.05 μg/mL Atto 532 (Sigma 06699). Formulated components were printed in duplicate onto 2D-Epoxy functionalized glass slides (Poly-An #104-00-221) or SuperEpoxy 2 microarray slides (ArrayIt) using an Arrayit NanoPrint LM60 arrayer at 60% humidity. Following the print, slides were scanned in a microarray fluorescence scanner (Innopsys, InnoScan 1100 AL) to validate that array components were successfully deposited onto the slide surface. Binding profiles for a representative set of lectins and antibodies were used as QC for each printed microarray batch. The printed NGP microarrays were stored under vacuum at −20° C.
(§4) Antibody selectivity and apparent KD were determined using a NGP microarray. A pre-assay scan was performed to control for missing features. Selectivity and affinity of most mAbs were measured on the full array. A focused array was used to acquire an apparent KD measurement. A slide module (8 well for full array and 16-well for focused array) was mounted onto each slide and blocking buffer (3% BSA in PBS, pH 7.4) was applied to each well of the array. Blocking was performed overnight at 4° C. mAbs were serial diluted in binding buffer (1% BSA in PBST, pH 7.4). Following the block, wells were washed 4× with wash buffer (PBST, PBS with 0.05% tween-20). Primary mAb incubation was performed for 2.5 hours at 37° C. The wells were washed 5× with wash buffer. A CY3-labeled secondary antibody specific for the Fc portion of human IgG was diluted 500 fold into binding buffer and added to each array well (Jackson ImmunoResearch, 109-165-098). Secondary mAb incubation was performed for 1.5 hours at 37° C. Wells were washed 5× with wash buffer. Slides were removed from the slide module and submerged in wash buffer for 5 minutes. Washed slides were dried by centrifugation @ 1000×g in a centrifuge quipped with a swing bucket rotor. Fluorescent scans were obtained at multiple PMT values to maximize dynamic range. Raw data was analyzed using GenePix 7.0 software as previously described. Selectivity profiles and apparent KD curves were plotted in excel and Graphpad Prism. Apparent Kos were determined using one-site specific binding algorithm in Graphpad Prism.

[4] = target: PNAG 1 (glucosamine tetrasaccharide with an N-acetyl glucosamine at the reducing end); experiment: Glycan microarray apparent KD; assay type: binding; settings: PNAG 1 conjugate on the microarray
Protocol: as §3, with “Binding profiles for a representative set of lectins and antibodies were used as QC for each printed microarray batch. The printed NGP microarrays were stored under vacuum at −20° C.” left out
(§5) Antibody selectivity and apparent KD were determined using a NGP microarray. […] Selectivity and affinity of most mAbs were measured on the full array. […] Raw data was analyzed using GenePix 7.0 software as previously described. […]

[5] = target: PNAG 16 (glucosamine tetrasaccharide with an N-acetyl glucosamine at the terminal end); experiment: Glycan microarray apparent KD; assay type: binding; settings: PNAG 16 conjugate on the microarray
Protocol: as §3, with “Binding profiles for a representative set of lectins and antibodies were used as QC for each printed microarray batch. The printed NGP microarrays were stored under vacuum at −20° C.” left out
as §5

S. epidermidis biofilms = experiment: S. epidermidis biofilm staining, confocal microscopy; assay type: cell-based, Staphylococcus epidermidis; settings: fluorescently labeled antibodies at 5 μg/ml, fixed 20 hr biofilms
Protocol: For antibody labeling, recombinantly expressed antibodies were labeled with fluorescent dyes using Invitrogen antibody dye labeling kits. Concentration and labeling efficiency was confirmed using nanodrop. For S. epidermidis biofilm formation and confocal microscopy, Staphylococcus epidermidis (Winslow and Winslow) Evans ATCC 14990 was resuspended and cultured on tryptic soy broth agar plates according to ATCC recommended procedures. Single colonies were picked into 5 mL Tryptic Soy Broth (TSB) supplemented with 0.25% glucose (BD™ TSB) and bacteria were cultured overnight at 37 C with shaking (200 RPM). The overnight culture was diluted 1:100 into aerated TSB26. 400 μl (microliters) of the aerated culture was pipetted into 8-well chambered coverglass lab-tek II system suitable for confocal microscopy. Biofilms were allowed to mature for 20 hrs @37C without agitation. Mature films were washed 2×500 μl PBS to remove planktonic bacteria. The films were fixed in 4% paraformaldehyde in PBS for 30 minutes, washed 2×500 μl PBS and stained with fluorescently labeled antibodies diluted to 5 μg/ml. The labeled films were then washed 2×500 μl PBS and then stained for 10 minutes with Hoechst stain @ 10 μg/ml. The films were washed a final time and kept under PBS for imaging. […]

[6] = tested on: Staphylococcus epidermidis (ATCC 35984) suspension culture; experiment: Labeled antibody incubation with suspension cultures of microorganisms; assay type: cell-based; settings: Alexa Fluor 488 labeled TG10; data not shown
[7] = tested on: S. aureus ATCC 29213 cells; experiment: Binding to planktonic S. aureus, fluorescence microscopy; assay type: cell-based; settings: labeled mAb, 20 μg/mL, fixed planktonic cells
Protocol: (§6) TG10 binding was evaluated in the PNAG producing strains of S. aureus ATCC 29213 and Xen 36 following overnight culturing with shaking in TSB and TB, respectively. The cells were pelleted, fixed in 4% paraformaldehyde and coated on glass chips. The plated cells were extensively washed followed by incubation with 488-labeled TG10 or 488-labeled F598 prior fluorescent microscopy. For evaluating TG10 and F598 binding with S. aureus, S. aureus […] and Xen 36 were grown in TSB and LB overnight, respectively. Cells were pelleted and fixed in 4% paraformaldehyde. Cells were calibrated to OD 0.5. 100 μl suspension were used for each sample. Each sample were pelleted and resuspended in 20 μg/mL mAb TG10, F598 or both. After shaking for 2 hours under ambient temperature, cells were pelleted, washed and transferred to glass chips and allowed to air dry. A cover slide was mounted via anti-fade media.

S. aureus Xen 36 cells = experiment: as above; assay type: cell-based; settings: labeled mAb, 20 μg/mL, fixed planktonic cells
Protocol: as §6

S. aureus ATCC 29213 = experiment: Passive immunization, S. aureus lethal dose challenge in a murine model; assay type: in vivo, Balb/C mice; settings: 200 μg mAb intraperitoneally one hour before 200 million cfu via tail vein
Protocol: An in vivo study was performed to evaluate the prophylactic efficacy of TG10 against a S. aureus lethal dose challenge in a murine model of infection. TG10 and F598 were evaluated as monotherapies and as a mAb cocktail. […] The combination provided 90% survival.
Balb/C mice aged 12 weeks (n=10/group) were passively immunized with 200 μg F598, 200μ g TG10, or 100μ g F598+100μ g TG10 in 100 μl PBS intraperitoneally. 100 μl PBS was injected intraperitoneally in the negative control group (n=5). One hour later, 200 million cfu S. aureus ATCC 29213 cells were administrated via tail vein. Mice condition was monitored. A mouse unable to move or which lost more than 20% body mass was euthanized. Survival was better in all three groups when compared to the PBS control arm.

[8] = tested on: PNAG conjugates on the array (dPNAG, PNAG and intermediate levels of deacetylation); experiment: Neoglycoprotein (glycan) microarray binding, 816-component array; settings: for PNAG Binding on Array: ability to bind both dPNAG and PNAG and intermediate levels of deacetylation
[9] = tested on: PNAG conjugates on the array (dPNAG, PNAG and intermediate levels of deacetylation); experiment: as above; settings: single point mutations
Protocol: as §3, §4

CC(=O)N[C@H]1C(O)O[C@H](CO)[C@H](O)[C@@H]1O (stereo partly shown) [N-acetyl galactosamine]
reduction of signal intensity of TG10 binding to PNAG 0 (TG10 binding to PNAG 0; 10 mM monosaccharide): unchanged

CC(=O)N[C@H]1C(O)O[C@H](CO)[C@@H](O)[C@@H]1O (stereo partly shown) [N-acetyl glucosamine]
reduction of RFU of F598 binding with PNAG 31 ([1]; 10 mM monosaccharide): 74%
reduction of RFU of F598 binding with PNAG 31 ([1]; 100 mM monosaccharide): 99%
reduction of signal intensity of TG10 binding to PNAG 0 (TG10 binding to PNAG 0; 10 mM monosaccharide): 15%

N[C@H]1C(O)O[C@H](CO)[C@H](O)[C@@H]1O (stereo partly shown) [galactosamine]
reduction of signal intensity of TG10 binding to PNAG 0 (TG10 binding to PNAG 0; 10 mM monosaccharide): 45%

N[C@H]1C(O)O[C@H](CO)[C@@H](O)[C@@H]1O (stereo partly shown) [glucosamine]
reduction of signal intensity of TG10 binding to PNAG 0 (TG10 binding to PNAG 0; 10 mM monosaccharide): 94%
reduction of signal intensity of TG10 binding to PNAG 0 (TG10 binding to PNAG 0; 100 mM monosaccharide): 100%
IC50 [2]: 1000 to 2000 µM

B1: TG10: Antibody, HC SEQ ID NO: 3, LC SEQ ID NO: 12; primer mutations in ADI-45379 reverted to germline (antibody, V domains shown)
VH: EVQLVESGGGLVQPGGSLRLSCAVSGFPFSSYWMSWVRQAPGKGLEWVANIKEDGSEKYYVDSVKGRFTISRDNAKNSLYLQMNSLRAEDTAVYYCATDPDVGLSDSWGQGTLVTVSS
VL: EIVLTQSPGTLSLSPGDRATHSCRASQSVSRSYLAWYQQKPGQTPRLFIYGASNRATGIPDRFSGSGSGTYFTLTISRLEPEDFAVYYCQQYDSAPDTFGQGTRLEIK
modifications: TG10 Heavy Chain Variable Region; TG10 Light Chain Variable Region
notes: primer mutations in ADI-45379 reverted to germline
Kd ([3]; PNAG 0 conjugate on the microarray): 0.0083 µM
apparent KD ([3]; PNAG 0 conjugate on the microarray, given in mass concentration): 1.25 µg/mL
Kd [4]: 0.0115 µM
Kd [5]: 0.019 µM
localization of labeled antibody within the biofilm (S. epidermidis biofilms): isolated to core cells within the microcolonies
fluorescent microscopy of spun-down culture [6]: strong fluorescent signal
binding to cells [7]: bound
binding to cells (S. aureus Xen 36 cells): bound
survival compared to the PBS control group (S. aureus ATCC 29213): increased survival
selectivity among PNAG glycoconjugates on the array ([8]; 816-component array): excellent selectivity for the highly deacetylated PNAG conjugates PNAG 0 and PNAG 1
PNAG Binding on Array [8]: Yes

B2: TG10 LC D116A: TG10 HC (SEQ ID NO: 3) with TG10 LC D116A (SEQ ID NO: 49) (antibody, V domains shown)
VH: B1 VH
VL: B1 VL with D97A
modifications: TG10 Heavy Chain Variable Region; Site directed mutatation of TG10 HC Variable Region
function of TG10 variant (binding to PNAG conjugates on the array) [9]: functionally dead
effect of single point mutation on binding between TG10 and PNAG 0 ([3]; fully deacetylated PNAG conjugate PNAG 0): completely removed binding
PNAG Binding on Array [8]: No
